Reference: US20250320303A1 (SHENGHE CHINA BIOPHARMACEUTICAL, published 2025)
Each block holds one binder with its values, some of them ahead of it.

Experiments:
[1] = molecular target: T1, human TNFR2 (tumor necrosis factor receptor 2), on cells (human, UniProt P20333 23-461); assay: cell-based or functional assay
T1 sequence (looked up): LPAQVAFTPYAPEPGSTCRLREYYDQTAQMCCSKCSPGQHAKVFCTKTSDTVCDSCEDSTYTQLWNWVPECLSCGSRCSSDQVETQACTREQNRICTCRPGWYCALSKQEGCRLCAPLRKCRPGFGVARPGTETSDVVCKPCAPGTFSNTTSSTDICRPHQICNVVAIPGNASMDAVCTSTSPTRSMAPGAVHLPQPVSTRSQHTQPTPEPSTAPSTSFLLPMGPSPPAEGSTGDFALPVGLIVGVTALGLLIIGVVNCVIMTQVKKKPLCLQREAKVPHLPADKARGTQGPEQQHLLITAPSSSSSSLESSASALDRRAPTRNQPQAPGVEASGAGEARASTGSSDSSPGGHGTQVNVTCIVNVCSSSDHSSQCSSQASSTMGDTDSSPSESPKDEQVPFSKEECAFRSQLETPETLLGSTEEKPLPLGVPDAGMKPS

[2] = molecular target: T2, Recombinant human TNFR2-His Tag protein (Sino, Cat: 10417-H08H) (human, UniProt P20333 23-257); assay: competition ELISA: captured TNFR2-His, antibody titrated against 1.6 nM biotin-TNF-alpha (competitor)
T2 construct: Bought protein; also called hTNFR2; not shown: His tag
T2 sequence (looked up): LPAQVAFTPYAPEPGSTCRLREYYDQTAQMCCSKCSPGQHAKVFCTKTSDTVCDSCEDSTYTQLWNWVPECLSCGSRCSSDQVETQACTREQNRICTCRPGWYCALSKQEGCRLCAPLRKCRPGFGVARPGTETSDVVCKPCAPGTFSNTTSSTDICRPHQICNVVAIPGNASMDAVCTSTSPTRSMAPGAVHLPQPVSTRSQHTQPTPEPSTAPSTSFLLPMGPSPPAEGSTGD
Description: Anti-His antibody (1 μg/mL) was coated at 50 μL/well, incubated at 4° C. overnight and washed 3 times with PBST. 2% BSA was added at 200 μL/well, incubated at room temperature for 1 hour and washed 3 times with PBST. 0.25 μg/mL (containing 2% BSA) of recombinant human TNFR2-His Tag protein (Sino; Cat: 10417-H08H) was added at 50 μL/well, incubated for 1 hour at room temperature and washed 3 times with PBST. Primary antibody (isotype control or candidate antibody) was added at a concentration of 100 nM and diluted 4-fold in 11 gradients with a solution containing 1.6 nM recombinant human TNF-alpha-Biotin protein (Sino; Cat: 10602-HANE-B) and 2% BSA, incubated for 2 hours at room temperature and washed 3 times with PBST. Secondary antibody SA-HRP (1:5000) containing 2% BSA was added at 50 μL/well, incubated for 1 hour at room temperature and washed 3 times with PBST.
After washing, TMB developed the color for 10 min, and the OD450 reading was determined by the enzyme labeler after the display was terminated. Based on the experimental results, it was judged whether the candidate antibodies had ligand blocking activity. As shown in Table 2 and FIG. 2, 2 sequences show better ligand blocking ability than BMK2; 6 sequences show equivalent ligand blocking ability to BMK2.

[3] = molecular target: T2, Recombinant human TNFR2-His Tag protein …; assay: SPR (Biacore 8K), antibody captured by anti-rat Fc, 10 nM TNFR2-His as analyte, 1:1 model
Description: The CM5 sensor chip was activated at a flow rate of […] for 420 s. The channel was then injected with 30 μg/mL of anti-rat Fc IgG in 10 mM NaAc (pH 4.5) at a flow rate of 10 μL/min. The chip was inactivated with 1 M ethanolamine-hydrochloric acid (GE) for 420 s at a flow rate of 10 μL/min.
Candidate antibodies in running buffer 1×HBS-EP+(10 mM HEPES, 150 mM NaCl, 3 mM EDTA, 0.05% Tween 20, pH 7.4) were captured onto Fc2 with anti-rat Fc IgG at a flow rate of 10 μL/min. The 10 nM recombinant human TNFR2-His Tag protein (Sino; Cat: 10417-H08H) and running buffer were sequentially injected into Fc1-Fc2 at a flow rate of […], bound for 180 s, and then dissociated for 3600 s. 10 mM glycine (pH 1.5) was injected as regeneration buffer after each dissociation.
Result plots for the reference channel Fc1 and the buffer channel were subtracted from the test result plots. The experimental data fit the 1:1 binding model. The molecular weight of 26.6 kDa was used to calculate the molar concentration of recombinant human TNFR2-His Tag protein.

[4] = molecular target: T1, human TNFR2 (tumor necrosis factor …); assay: flow cytometry on CHOK1-hTNFR2 cells
Description: CHOK1-hTNFR2 cells were plated at 1×10⁵/well (containing 1% BSA). 100 μL of isotype control and candidate antibodies were added at a concentration of 100 nm and 4-fold diluted in 11 gradients (containing 1% BSA). Cells were incubated at 4° C. for 1 hour and then washed twice with excess FACS buffer. Cells were resuspended in 100 μL of FACS buffer, and 100 μL of goat anti-rat IgG Fc-AF647 (1:500) containing 1% BSA was added, incubated at 4° C. without light for 30 minutes and washed twice with excess FACS buffer. Cells were fixed in fixation buffer and subsequently analyzed by flow cytometry. The FACS method screened for candidate antibodies with high specific binding activity to human TNFR2.

[5] = molecular target: T3, human W3785-hProl.ECD.His (Human-TNFR2-His) protein (human, UniProt P20333 23-257); assay: BLI (Octet Red96e), antibody on AHC sensor, Human-TNFR2-His in solution, multiple concentrations
T3 construct: extracellular domain; not shown: His tag
T3 sequence (looked up): T2 sequence (looked up)

[6] = molecular target: T3, human W3785-hProl.ECD.His …; assay: indirect ELISA on coated Human-TNFR2-His
Description: (1) Coating: Human-TNFR2-His was diluted to 0.5 μg/mL with coating solution (1×PBS, pH 7.4), and coated into a 96-well ELISA plate at 100 μL/well at 4° C. overnight. The coating solution was poured off, and the plate was washed with 1×PBST at 300 μL per well, washed with a plate cleaning instrument for 4 times, and patted dry on sheet paper. [0184] (2) Blocking: it was blocked with 3% non-fat dry milk at 300 μL/well, and incubated at 37° C. for 1 h. The blocking solution was poured off, washed by a plate cleaning instrument for 4 times, and patted dry on sheet paper. [0185] (3) Sample dilution: the reference product and the test product were diluted with 3% non-fat dry milk to 10 μg/mL, and this was used as the initial concentration for 3-fold dilution with a total of 11 gradients of dilution, and another one blank well was set up, and only diluent was added. It was incubated at 100 μL/well at 37° C. for 1 h. Liquid in the wells was discarded, washed by a plate cleaning instrument for 4 times, and patted dry on the sheet paper. [0186] (4) Addition of enzyme-labeled secondary antibody: Peroxidase-conjugated AffiniPure F(ab′)2 Fragment Goat Anti-Human IgG was diluted with 3% non-fat dry milk at 1:20,000. It was incubated at 100 μL/well at 37° C. for 1 h. It was washed by a plate cleaning instrument for 6 times and patted dry on sheet paper. […] (5) Color development: TMB color development solution was added at 100 μL/well and wrapped with aluminium foil, and the color was developed at 37° C. without light for 8 min. [0188] (6) Termination of color development: terminal solution 1 M HCl was added to terminate the color development reaction at 100 μL/well. [0189] (7) Reading at 450 nm on the enzyme labeler. [0190]

[7] = molecular target: T3, human W3785-hProl.ECD.His …; assay: BLI (Octet Red96e), antibody on AHC sensor, Human-TNFR2-His in solution, single concentration
Description: After equilibration of the AHC sensor with 0.02% PBST (0.02% Tween 20, pH 7.4, 1*PBS) as buffer for 60 s, the TNFR2 antibody in the sample plate was immobilized for 300 s, and second equilibration was performed for 180 s. 100 nM of human W3785-hProl.ECD.His (Human-TNFR2-His) protein was bound with the TNFR2 antibody for 300 s and then dissociated for 600 s. After dissociation, 10 mM glycine (pH 2.0) was used as regeneration buffer to regenerate for 30 s.

Kd [5]: 0.317 nM
koff [5]: 0.000171 s⁻¹
kon [5]: 542000 M⁻¹ s⁻¹
Kd [7]: 0.396 nM
B3: Antibody 11-xIgG1K (antibody, V domains shown)
VH: EVQLQQSGPELRRPGSSVKLSCKASGYSITDYLLHWVKHSPEHGLEWIGWIDPEDGKTKYGQKFQSKATLTADTSSNAAYMQLSSLTSEDSATYFCAANSGTGTMDAWGQGASVTVSS
VL: DIVMTQSPTSMSISVGDRVTLNCKASQNVGSNVDWYQQKTGQSPKVLLYKASIRYTGVPDRFTGSGSGTEFTFTITNMQAEDLAVYFCMQSKSYPITFGSGTKLEIKR
notes: Rat-human chimeric antibody, human IgG1 kappa

Kd [5]: 0.0996 nM
koff [5]: 8.1e-05 s⁻¹
kon [5]: 813000 M⁻¹ s⁻¹
EC50 [6]: 0.0143 µg/mL
Kd [7]: 0.24 nM
B5: Antibody 10-xIgG1K (antibody, V domains shown)
VH: EVQLVETGGGLVQPGKSLKLTCATSGFTFSNAWMGWVRQSPEKQLEWVAQIKDKSNNYPTYYAESVKGRFTISRDDSESSVYLQMNSLKEEDTAIYYCTGYGDFFDYWGQGVVVTVSS
VL: DIQMTQSPASLSASLGETVTIECRASEDIYNGLAWYQQKPGNSPRLLIFNANSLHTGVPSRFSGSGSGTQYSLKINSLQSEDVASYFCQQYYDHPLTFGSGIKLEIKR
notes: as for B3

IC50 [2]: > 100 nM
Inhibition rate (%) [2]: 12.2%
Kd [3]: 0.15 nM
koff [3]: 7.4e-05 s⁻¹
kon [3]: 492000 M⁻¹ s⁻¹
B6: Antibody 10 (antibody, V domains shown)
VH: B5 VH
VL: DIQMTQSPASLSASLGETVTIECRASEDIYNGLAWYQQKPGNSPRLLIFNANSLHTGVPSRFSGSGSGTQYSLKINSLQSEDVASYFCQQYYDHPLTFGSGIKLEIK
notes: Rat monoclonal antibody from a hybridoma
EC50 [4]: 0.077 nM
Maximum average fluorescence value [4]: 907

Further lines, the binder ahead of its results:

B1: Antibody 04 (antibody, V domains shown)
VH: EVHLQQSGPEVGRPGSSVKISCKASGYTFTDYIIHWVKQSPGQGLEWMGWIDPDYGNTDYADKFKKKATLTADASSNTAFIHLSRLTSEDTATYFCARDDGSPLVMDAWGQGTSVTVSS
VL: NIQLTQSPSLLSASVGDRVTLSCNGSQNIDNYLAWFQQKLGEAPKLLIYSTYSLQTGIPSRFSGSRSGTDYTLTISSLQPEDVATYFCFQYNNGYMFGAGTKLELK
notes: as for B6
IC50(nM), Treg cell count after 72 h with IL2 and TNF-alpha [1]: 0.88 nM
Treg cell changes relative to IL-2(%) [1]: 100%
IC50 [2]: 0.584 nM
Inhibition rate (%) [2]: 96%
Kd [3]: < 0.00758 nM
koff [3]: < 1e-05 s⁻¹
kon [3]: 1.32e+06 M⁻¹ s⁻¹
EC50 [4]: 0.025 nM
Maximum average fluorescence value [4]: 1320

B2: Antibody 04-xIgG1K (antibody, V domains shown)
VH: B1 VH
VL: NIQLTQSPSLLSASVGDRVTLSCNGSQNIDNYLAWFQQKLGEAPKLLIYSTYSLQTGIPSRFSGSRSGTDYTLTISSLQPEDVATYFCFQYNNGYMFGAGTKLELKR
notes: as for B3
Kd [5]: 0.0606 nM
koff [5]: 6.65e-05 s⁻¹
kon [5]: 1.1e+06 M⁻¹ s⁻¹
EC50 [6]: 0.00581 µg/mL
Kd [7]: 0.148 nM

B4: Antibody 11 (antibody, V domains shown)
VH: B3 VH
VL: DIVMTQSPTSMSISVGDRVTLNCKASQNVGSNVDWYQQKTGQSPKVLLYKASIRYTGVPDRFTGSGSGTEFTFTITNMQAEDLAVYFCMQSKSYPITFGSGTKLEIK
notes: as for B6
IC50 [2]: > 100 nM
Inhibition rate (%) [2]: 22.4%
Kd [3]: 1.4 nM
koff [3]: 0.000169 s⁻¹
kon [3]: 120000 M⁻¹ s⁻¹
EC50 [4]: 0.493 nM
Maximum average fluorescence value [4]: 1010
